Laboratory results: US20220235118A1 (IMMUNOME, published 2022)

Assays:
[1] = target: T1, SARS-CoV-2 Spike RBD K417N, E484K, N501Y (SARS-CoV-2, UniProt P0DTC2 319-541); assay: HTRF, soluble RBD construct
T1 construct: domain: RBD; also called S. African partial (K417N, E484K, N501Y)

[2] = target: T2, SARS-CoV-2 Spike RBD E484Q (SARS-CoV-2, UniProt P0DTC2 319-541); assay: HTRF, soluble RBD construct
T2 construct: domain: RBD

[3] = target: T3, SARS-CoV-2 Spike RBD L452R (SARS-CoV-2, UniProt P0DTC2 319-541); assay: HTRF, soluble RBD construct
T3 construct: domain: RBD

[4] = target: T4, SARS-CoV-2 Spike RBD A475V (SARS-CoV-2, UniProt P0DTC2 319-541); assay: HTRF, soluble RBD construct
T4 construct: domain: RBD

[5] = target: T5, SARS-CoV-2 Spike RBD A352S (SARS-CoV-2, UniProt P0DTC2 319-541); assay: HTRF, soluble RBD construct
T5 construct: domain: RBD

[6] = target: T6, SARS-CoV-2 Spike RBD F486S (SARS-CoV-2, UniProt P0DTC2 319-541); assay: HTRF, soluble RBD construct
T6 construct: domain: RBD

[7] = target: T7, SARS-CoV-2 Spike RBD E406Q (SARS-CoV-2, UniProt P0DTC2 319-541); assay: HTRF, soluble RBD construct
T7 construct: domain: RBD

[8] = target: T8, SARS-CoV-2 Spike RBD K417T, E484K, N501Y (SARS-CoV-2, UniProt P0DTC2 319-541); assay: HTRF, soluble RBD construct
T8 construct: domain: RBD; also called Brazilian (K417T, E484K, N501Y)

[9] = target: T8, SARS-CoV-2 Spike RBD K417T, E484K, N501Y; assay: HTRF, EC50 of binding, soluble RBD construct
[10] = target: T9, SARS-CoV-2 Spike-RBD Omicron variant (SARS-CoV-2, UniProt P0DTC2 319-541); assay: HTRF binding assay on soluble Spike-RBD B.1.1.529; % binding relative to Ref
T9 construct: domain: RBD; also called soluble RBD domain of the Spike protein containing mutations found in the Omicron variant

| Binder | EC50 [1] | EC50 [2] | EC50 [3] | EC50 [4] | EC50 [5] | EC50 [6] | EC50 [7] | EC50 [8] | binding result [9] | binding result [10] |
| --- | --- | --- | --- | --- | --- | --- | --- | --- | --- | --- |
| PR193_00018 (antibody, V domains shown, also called IMM20184; IMM200184) VH: EVQLVESGGGLVQPGGSLRLSCSASGFTFSSFWMSWVRQAPGKGLEWVATIREDGSEKYYVDSVKGRFSISRDNAKNSLYLQMNSLRAEDTAVYYCARSKWLRGSFDYWGQGTLVTVSS VL: NFMLTQPHSVSESPGKTVTISCTRRSGSIASNYVQWYQQRPGSAPTTVIYEDNQRPSGVPDRFSGSIDSSSNSASLTISGLQTEDEADYYCQSYDSSNPPGASWVFGGGTKLTVL | 0.0145 nM | 0.0216 nM | 0.0436 nM | 0.0279 nM | 0.0263 nM | 0.0221 nM | 0.0261 nM | 0.0183 nM | – | – |
| PR194_00232 (antibody, V domains shown, also called IMM20190; PR194_00190) VH: EVQLVESGGGLVQPGGSLRLSCSASGFTVSSNYMSWVRQAPRKGLEWVSVIYAGGSTFYADSVKGRFTISRDNSKNTLLLQMNSLRAEDTAVYYCARDRGGYLDYWGQGTLVTVSS VL: DIQMTQSPSSLSASVGDRVTITCRASQGISNYLAWYQQKPGKVPKLLIYAASTLQSGVPSRFSGSGSGTDFTLTISSLQPEDVATYYCQKYNSAPGLTFGGGTKVEIK | – | 0.0524 nM | 0.0318 nM | 0.0724 nM | 0.0219 nM | 0.0334 nM | 0.0677 nM | – | no binding | no binding |
| PR200_00622 (antibody, V domains shown, also called IMM20253; PR200_00253) VH: QVQLVESGGGVVQPGRSLRLSCTASGFTFSTYGMHWVRQAPGKGLEWVAVISYDGSSKHYAESVKGRFTISRDNSNNTLYLQMNRLRAEDTAVYYCARDGQPPGWGNYFDYWGQGTLVTVAS VL: SYVLTQPPSVSVAPGKTARITCGGNGIGSKSVYWYQQKPGQAPEVVVYDDSDRPSGIPERFSGSNSGNTATLTISRVEAGDEADYYCQVWDSSSDPWVFGGGTKLTVL | 0.0197 nM | 0.0238 nM | 0.034 nM | 0.033 nM | 0.0317 nM | 0.0259 nM | 0.0406 nM | 0.0236 nM | – | – |
